Results on 2 molecules are retold here after US20140087995A1 (published 2014).

Experiment [1] addresses T1, human calcitonin receptor (human, UniProt P30988 25-474).
T1 sequence (looked up): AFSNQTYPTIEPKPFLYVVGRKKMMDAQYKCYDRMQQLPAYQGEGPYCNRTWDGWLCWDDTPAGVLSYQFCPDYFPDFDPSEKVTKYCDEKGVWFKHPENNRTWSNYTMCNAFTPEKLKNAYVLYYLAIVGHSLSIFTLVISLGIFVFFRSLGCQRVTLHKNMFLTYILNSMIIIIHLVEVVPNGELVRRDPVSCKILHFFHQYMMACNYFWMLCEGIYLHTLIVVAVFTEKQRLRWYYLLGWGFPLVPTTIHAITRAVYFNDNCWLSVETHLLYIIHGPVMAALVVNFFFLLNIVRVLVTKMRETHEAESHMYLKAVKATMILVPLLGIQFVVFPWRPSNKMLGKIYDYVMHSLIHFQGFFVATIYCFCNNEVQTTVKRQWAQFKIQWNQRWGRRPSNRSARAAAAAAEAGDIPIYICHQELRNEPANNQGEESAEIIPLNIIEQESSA
Description: cell-based or functional assay.

Experiment [2] deals with T2, human amylin receptor (amylin 3(a) receptor: human calcitonin receptor with RAMP-3) (human, UniProt P30988 25-474; O60896 24-148, limits assumed).
T2 construct: whole, on cells; Whole cells in the luciferase assay (Assay II a); also called hAmylin-R; hAmylinR
T2 sequence (looked up) 1: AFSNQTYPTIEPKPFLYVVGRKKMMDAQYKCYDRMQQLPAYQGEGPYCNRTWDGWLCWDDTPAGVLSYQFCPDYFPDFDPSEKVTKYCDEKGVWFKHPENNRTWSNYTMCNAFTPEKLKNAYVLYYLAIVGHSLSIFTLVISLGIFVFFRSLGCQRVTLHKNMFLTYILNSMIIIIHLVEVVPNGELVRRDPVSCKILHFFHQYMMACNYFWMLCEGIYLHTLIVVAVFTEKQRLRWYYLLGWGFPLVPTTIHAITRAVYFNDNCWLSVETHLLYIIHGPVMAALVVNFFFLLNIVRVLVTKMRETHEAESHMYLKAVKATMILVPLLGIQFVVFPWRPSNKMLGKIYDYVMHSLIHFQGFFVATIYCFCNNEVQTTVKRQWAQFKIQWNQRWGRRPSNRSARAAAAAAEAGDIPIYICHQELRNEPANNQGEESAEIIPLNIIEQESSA
T2 sequence (looked up) 2: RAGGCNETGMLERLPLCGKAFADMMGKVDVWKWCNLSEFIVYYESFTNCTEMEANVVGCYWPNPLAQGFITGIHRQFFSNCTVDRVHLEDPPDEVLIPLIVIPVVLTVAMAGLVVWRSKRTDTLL
Put plainly: SPA competition binding on membranes of BHK cells with human calcitonin receptor + RAMP-3; displacement of 125I-rat amylin (Assay V). In short, it runs like this: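 SPA beads with BHK Amylin 3(a)/CRE-luc cell membranes (35 ng/μL final) in 50 mM Hepes pH 7.4, 1 mM CaCl2, 5 mM MgCl₂, 0.1% OA, 0.02% Tween20.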
On the technique in general: Displacement assays read how much labelled ligand stays bound in the presence of the test substance.

As usually defined, the IC50 is the midpoint of a concentration-inhibition curve.

Numbered stars: 1 amine (or outer) side, 2 acyl side, 3 side chain; on linkers, the order of the positions; unused ones are H or OH. Bridge positions count the residues as written; N and C are the ends. Side chains are listed from the residue outwards. Ends that are not written are not given here. * marks the point of attachment. C20 diacid = O=C(O)CCCCCCCCCCCCCCCCCCC(=O)*; γGlu = O=C(O)[C@H](CCC(=O)[*:2])N[*:1]

B1: N^ε1-[(4S)-4-carboxy-4-(19-carboxynonadecanoylamino)butanoyl]-[Asp14,Arg17,Pro21,Pro27,Pro34,Arg35]-h-amylin (peptide)
peptide: K([γGlu-C20 diacid])CNTATCATQRLADFLRHSSPNFGAIPSSTNVGPRTY-NH2
modifications: disulfide 2-7; N-terminus assumed
SMILES: CC[C@H](C)[C@H](NC(=O)[C@H](C)NC(=O)CNC(=O)[C@H](Cc1ccccc1)NC(=O)[C@H](CC(N)=O)NC(=O)[C@@H]1CCCN1C(=O)[C@H](CO)NC(=O)[C@H](CO)NC(=O)[C@H](Cc1c[nH]cn1)NC(=O)[C@H](CCCNC(=N)N)NC(=O)[C@H](CC(C)C)NC(=O)[C@H](Cc1ccccc1)NC(=O)[C@H](CC(=O)O)NC(=O)[C@H](C)NC(=O)[C@H](CC(C)C)NC(=O)[C@H](CCCNC(=N)N)NC(=O)[C@H](CCC(N)=O)NC(=O)[C@@H](NC(=O)[C@H](C)NC(=O)[C@@H]1CSSC[C@H](NC(=O)[C@@H](N)CCCCNC(=O)CC[C@H](NC(=O)CCCCCCCCCCCCCCCCCCC(=O)O)C(=O)O)C(=O)N[C@@H](CC(N)=O)C(=O)N[C@@H]([C@@H](C)O)C(=O)N[C@@H](C)C(=O)N[C@@H]([C@@H](C)O)C(=O)N1)[C@@H](C)O)C(=O)N1CCC[C@H]1C(=O)N[C@@H](CO)C(=O)N[C@@H](CO)C(=O)N[C@H](C(=O)N[C@@H](CC(N)=O)C(=O)N[C@H](C(=O)NCC(=O)N1CCC[C@H]1C(=O)N[C@@H](CCCNC(=N)N)C(=O)N[C@H](C(=O)N[C@@H](Cc1ccc(O)cc1)C(N)=O)[C@@H](C)O)C(C)C)[C@@H](C)O
For the molecule B1, in experiment [1], the “Ratio hCT/hAmylin funct.” value was 24.9 ratio and the “hCTR funct. EC50 (pM)” value was determined as 3640 pM. Moreover, the IC50 in experiment [2] was determined as 281 pM.

B2: N^ε1-[(4S)-4-carboxy-4-(19-carboxynonadecanoylamino)butanoyl]-[Glu14,Arg17,Pro21,Pro27,Pro34,Arg35]-h-amylin (peptide)
peptide: K([γGlu-C20 diacid])CNTATCATQRLAEFLRHSSPNFGAIPSSTNVGPRTY-NH2
modifications: disulfide 2-7; N-terminus assumed
SMILES: CC[C@H](C)[C@H](NC(=O)[C@H](C)NC(=O)CNC(=O)[C@H](Cc1ccccc1)NC(=O)[C@H](CC(N)=O)NC(=O)[C@@H]1CCCN1C(=O)[C@H](CO)NC(=O)[C@H](CO)NC(=O)[C@H](Cc1c[nH]cn1)NC(=O)[C@H](CCCNC(=N)N)NC(=O)[C@H](CC(C)C)NC(=O)[C@H](Cc1ccccc1)NC(=O)[C@H](CCC(=O)O)NC(=O)[C@H](C)NC(=O)[C@H](CC(C)C)NC(=O)[C@H](CCCNC(=N)N)NC(=O)[C@H](CCC(N)=O)NC(=O)[C@@H](NC(=O)[C@H](C)NC(=O)[C@@H]1CSSC[C@H](NC(=O)[C@@H](N)CCCCNC(=O)CC[C@H](NC(=O)CCCCCCCCCCCCCCCCCCC(=O)O)C(=O)O)C(=O)N[C@@H](CC(N)=O)C(=O)N[C@@H]([C@@H](C)O)C(=O)N[C@@H](C)C(=O)N[C@@H]([C@@H](C)O)C(=O)N1)[C@@H](C)O)C(=O)N1CCC[C@H]1C(=O)N[C@@H](CO)C(=O)N[C@@H](CO)C(=O)N[C@H](C(=O)N[C@@H](CC(N)=O)C(=O)N[C@H](C(=O)NCC(=O)N1CCC[C@H]1C(=O)N[C@@H](CCCNC(=N)N)C(=O)N[C@H](C(=O)N[C@@H](Cc1ccc(O)cc1)C(N)=O)[C@@H](C)O)C(C)C)[C@@H](C)O
B2: in experiment [1], the “Ratio hCT/hAmylin funct.” value was 17 ratio and the “hCTR funct. EC50 (pM)” value was 6380 pM. The concentration for half-maximal inhibition (IC50) in experiment [2] was determined as 163 pM.
